We go through twelve molecules from patent publication US20170334973A1 (INTEGRATED BIOTHERAPEUTICS, published 2017).

In one assay the target is T1, EBOV VLP (Ebola virus (EBOV), UniProt Q05320 33-676).
T1 sequence: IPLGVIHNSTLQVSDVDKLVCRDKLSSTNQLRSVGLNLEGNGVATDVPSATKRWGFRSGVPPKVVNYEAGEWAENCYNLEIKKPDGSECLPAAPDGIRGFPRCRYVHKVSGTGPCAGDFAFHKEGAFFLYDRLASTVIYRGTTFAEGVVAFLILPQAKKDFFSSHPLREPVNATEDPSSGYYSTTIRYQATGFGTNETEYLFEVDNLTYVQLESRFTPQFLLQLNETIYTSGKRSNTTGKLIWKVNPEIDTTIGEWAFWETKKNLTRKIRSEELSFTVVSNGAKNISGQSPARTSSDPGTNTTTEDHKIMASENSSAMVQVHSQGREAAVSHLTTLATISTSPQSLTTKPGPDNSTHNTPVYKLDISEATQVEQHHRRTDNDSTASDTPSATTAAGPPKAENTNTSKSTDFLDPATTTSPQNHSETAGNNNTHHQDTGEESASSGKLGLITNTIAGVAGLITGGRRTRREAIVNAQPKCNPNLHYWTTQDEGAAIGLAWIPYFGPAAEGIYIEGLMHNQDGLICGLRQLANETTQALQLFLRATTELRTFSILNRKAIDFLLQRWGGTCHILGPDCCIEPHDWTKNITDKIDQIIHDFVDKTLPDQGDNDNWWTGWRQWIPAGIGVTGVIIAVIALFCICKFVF
Nature of the assay: ELISA.

Another assay deals with T2, SUDV VLP (Sudan virus (SUDV), UniProt Q66814 33-676).
T2 sequence: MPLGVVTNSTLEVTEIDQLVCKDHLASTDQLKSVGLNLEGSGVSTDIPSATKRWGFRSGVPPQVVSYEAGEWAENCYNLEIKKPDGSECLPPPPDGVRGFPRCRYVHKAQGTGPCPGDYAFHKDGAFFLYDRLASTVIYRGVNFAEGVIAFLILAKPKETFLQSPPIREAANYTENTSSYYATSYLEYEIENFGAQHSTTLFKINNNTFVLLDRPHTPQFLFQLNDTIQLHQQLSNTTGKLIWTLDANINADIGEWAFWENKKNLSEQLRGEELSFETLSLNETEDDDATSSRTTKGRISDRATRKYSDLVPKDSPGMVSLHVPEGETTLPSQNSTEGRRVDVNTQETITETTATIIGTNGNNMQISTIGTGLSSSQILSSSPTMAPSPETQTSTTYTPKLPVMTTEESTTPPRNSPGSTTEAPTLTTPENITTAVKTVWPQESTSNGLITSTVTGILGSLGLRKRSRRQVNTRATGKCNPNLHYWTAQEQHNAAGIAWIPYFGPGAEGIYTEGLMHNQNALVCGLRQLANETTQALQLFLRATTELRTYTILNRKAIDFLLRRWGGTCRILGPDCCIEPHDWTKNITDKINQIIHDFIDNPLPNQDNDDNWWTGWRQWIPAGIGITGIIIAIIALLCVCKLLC
Nature of the assay: ELISA. (In general: ELISA stands for enzyme-linked immunosorbent assay.)

Another assay addresses T3, MARV (Musoke strain) GP (Marburg virus (MARV), Musoke strain, UniProt P35253 19-648).
T3 sequence: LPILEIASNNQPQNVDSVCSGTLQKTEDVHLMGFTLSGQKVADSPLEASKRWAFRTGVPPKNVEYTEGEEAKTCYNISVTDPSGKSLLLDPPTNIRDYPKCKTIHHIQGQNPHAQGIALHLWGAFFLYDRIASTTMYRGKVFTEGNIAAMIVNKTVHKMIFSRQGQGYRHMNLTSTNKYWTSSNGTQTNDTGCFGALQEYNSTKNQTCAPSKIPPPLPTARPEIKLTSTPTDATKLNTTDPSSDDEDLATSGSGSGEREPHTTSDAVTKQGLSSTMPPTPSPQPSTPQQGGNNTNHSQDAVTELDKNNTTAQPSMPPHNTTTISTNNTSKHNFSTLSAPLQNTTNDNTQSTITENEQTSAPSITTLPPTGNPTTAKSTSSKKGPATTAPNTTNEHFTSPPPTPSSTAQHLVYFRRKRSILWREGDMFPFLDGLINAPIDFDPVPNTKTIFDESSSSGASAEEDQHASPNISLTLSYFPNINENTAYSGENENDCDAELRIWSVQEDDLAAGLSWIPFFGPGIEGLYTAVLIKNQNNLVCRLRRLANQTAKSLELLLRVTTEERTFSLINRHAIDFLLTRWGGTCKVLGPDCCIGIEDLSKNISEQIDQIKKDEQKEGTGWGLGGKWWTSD
Nature of the assay: GP ELISA, purified mAb.

B1: FVM25 (antibody, V domains shown)
VH: EVQLVHSGAEVKRPGESLTISCKTSGYTFTDYWIAWVRQMPGKGLEWMASIYPDDSDTRYNPSFQGHVTISADKSISTTYLQWSSLRASDTATYYCVKGSETWGQGVLVTVSS
VL: QLVLTQPASLSASPGTSASLTCTFSGGINVAGYNILWYQQKPGSPPRFLLRYKSDSDNVQGSGVPSHFSGSKDASTNTGILRISGLQSEDEADYYCAIGHSSGWVFGGGTRLTVL
For the molecule B1, the 50% effective concentration (EC50) – broadly, the concentration giving half of the maximal effect – with EBOV VLP came to 0.473 nM; with SUDV VLP it was 0.96 nM.

B2: FVM20 (antibody, V domains shown)
VH: EVQLVESGAEVKRPGESLTISCKTSGYSFTGSWISWVRQMPGKGLEWLGSIYPGDSETKYNPSFQGHVTISADKSVTTTYLKWSSLKASDTATYYCVKGSETWGQGVLVTVSS
VL: NFMLTQSASLSASPGASASLTCTFSGGINVAGYHIFWYQQNPGSPPRYLLRYKSDSEKDQGSGVPSRFSGSKDASANTGILRISGLQSEDEADYYCAIGHSSGWIFGGGTRLTVL
On to B2, for which the half-maximal effective concentration (EC50) with EBOV VLP turned out to be 1.29 nM; with SUDV VLP it was 32.9 nM. In the assay with MARV (Musoke strain) GP, the binding result was “no binding”.

B3: FVM23 (antibody, V domains shown)
VH: QVQLVQSGAEVKRPGESLTISCKTSGYSFTGSWISWVRQMPGKGLEWMGSIYPGDSDTTYNPSFQGHVTISADKSISTAYLQWTSLKASDTATYYCVKGSETWGQGVLVTVSS
VL: SYELTQPASLSASPGASASLTCTFSGGINVAGYNILWYQQKAGSPPRYLLRYKSDSTKDQGSGVPSRFSGSKDASANTGILRISGLQSEDEADYYCAIGHSSGLIFGAGTRLTVL
Regarding B3, the EC50 with EBOV VLP was found to be 0.367 nM; in the assay with SUDV VLP it was 0.353 nM.

B4: FVM19 (antibody, V domains shown)
VH: QVQLVQSGAEVKRPGESLTISCKTSGYSFTDSWVAWVRQMPGKGLEWLGSIYPGDSDTKYNPSFQGHVTISADKSVTTTYLKWSSLKASDTATYYCVKGSETWGQGVLVTVSS
VL: KPMLTQPASLSASPGASASLTCTFSGGINVAGYHIFWYQQKPGSPPRYLLRYKSDSDKGQGSGVPSRFSGSKDASANTGILRISGLQSEDEADYYCAIGHSSGLLFGGGTRLTVL
Turning to B4, the EC50 is 0.967 nM with EBOV VLP and 5.4 nM in the assay with SUDV VLP.

B5: FVM17 (antibody, V domains shown)
VH: EVQLVQSGAEVKRPGESLTISCKTSGYSFTDSWISWVRQMPGKGLEWMGSIYPGDSDARYNPSFQGHVTISADKSISTTYLKWSSLKASDTATYYCVKGSETWGQGVLVTVSS
VL: QAVVTQPASLSASPGTSASLTCTFSGGINVAGYNILWYQQKPGSPPRFLLRYKSDSDNVQGSGVPSHFSGSKDASANTGILRISGLQSEDEADYYCAIGHSSGWIFGGGTRLTVL
Turning to B5, the concentration giving a half-maximal response (EC50) came out at 0.767 nM with EBOV VLP and 1.43 nM with SUDV VLP.

B6: FVM13 (antibody, V domains shown)
VH: EVQLVQSGAEVKRPGESLKISCKTSGYTFTSSWISWVRQMPGKGLEWLGSIYPGDSDTRYNPSFQGHVTISADTSIITTHLQWSSLKASDTATYYCVKGSETWGQGVLVTVSS
VL: KPMLTQPTSLSASPGASASLTCTFSGGINVAGYNILWYQQKAGSPPRYLLRYKSDSTKDQGSGVPSRFSGSKDASANTGILRISGLQSEDEADYYCAIGHSSGWIFGGGTRLTVL
In the case of B6, the EC50 with EBOV VLP came out at 0.198 nM; with SUDV VLP, 0.144 nM. The binding result in the assay with MARV (Musoke strain) GP is reported as “no binding”.

B7: FVM18 (antibody, V domains shown)
VH: QVQLVQSGAEVKRPGESLKISCKTSGYSFTNIWISWVRQMPGKGLEWLGSIYPGDSETKYNPSFQGHVTISADKSVTTTYLKWSSLKASDTATYYCVKGSETWGQGVLVTVSS
VL: NFMLTQPASLSASPGASASLTCTFSGGINVAGYHILWYQQKPGSPPRYLLRYKSDSEKDQGSGVPSRFSGSKDASANRGILRISGLQSEDEADYYCAIGHSSSGWVFGGGTRLTVL
Turning to B7, the EC50 was found to be 1.03 nM in the assay with EBOV VLP and 1.08 nM in the assay with SUDV VLP.

B8: FVM21 (antibody, V domains shown)
VH: EVQLVESGAEVKRPGESLTISCKTSGYSFTDSWVAWVRQMPGKGLEWLGSIYPGDSETKYNPSFQGHVTISADKSISTTYLQWSSLRASDTATYYCVKGADDWGPGLLVTVSS
VL: SSELTQPASLSASPGASASLTCTFSGGINVAGYNILWYQQKAGSPPRYLLRYKSDSDKGQGSGVPSRFSGSKDASANTGILRISGLQSEDEADYYCAIGHSSGWIFGGGTRLTVL
Consider B8, for which the EC50 with EBOV VLP worked out at 0.32 nM; in the assay with SUDV VLP, 0.373 nM.

B9: FVM28 (antibody, V domains shown)
VH: EVQLVQSGAEVKRPGESLKISCQTSGYRFTSSWISWVRQMPGKGLEWMGAIDPSDSETRYSPSFQGQVTISADKSISTAYLKWSSLKASDTATYYCVKGSETWGQGVLVTVSS
VL: QAALTQPASLSASPGASASLTCTFSGGINVAGYHILWYQQKPGSPPRYLLRYKSDSEKDQGSGVPSRFSGSKDASANRGILRISGLQSEDEADYYCAIGHSSSGWVFGGGTRLTVL
As to B9, the EC50 with EBOV VLP was 0.593 nM; in the assay with SUDV VLP, 0.58 nM.

B10: FVM01P (antibody, V domains shown)
VH: QVQLQESGPGLVKPSETLSLTCTVSGASISNYRWNWIRQPPGKGLEWIGEINGYSGSTNYNPSLKSRVTISKDASKNQFSLKLTSVTAADTAVYYCPIIGGFTLEWFDVWGPGVLVTVSS
VL: DVVLTQSPSSLSASVGDRVTITCRASQGIRNYLNWYQQKPRKAPKLLIYAASSLQSGVPSRFSGSGSGTEFTLTISSLQAEDFATYYCLQGYRTPFTFGPGTKLDIKR
Turning to B10, the figures for the EC50 with EBOV VLP and with SUDV VLP were 0.459 nM and 0.319 nM, respectively. For the same molecule, in the assay with MARV (Musoke strain) GP, the binding result is listed as “no binding”.

B11: FVM24 (antibody, V domains shown)
VH: EVQLVQSGAEVKRPGESLKISCKTSGYSFTDSWVAWVRQMPGKGLEWMGSIYPGDFQTRYNPSFQGHVTLSADKSISTTYLQWSSLKASDTATYYCVKGSETWGPGVLVTVSS
VL: SSGLTQPASLSASPGASASLTCTFSGGINVAGYNILWYQQKAGSPPRYLLRYKSDSTKDQGSGVPSRFSGSKDVSANTGILRISGLQSDDEADYYCAIGHSSGWIFGGGTRLTVL
Regarding B11, the EC50 in the assay with EBOV VLP was found to be 0.513 nM; with SUDV VLP, 3.2 nM.

B12: FVM32 (antibody, V domains shown)
VH: QVQLVQSGAEVKRPGESLRISCKTSGYSFTDSWVAWVRQMPGKGLEWLGSIYPGDSDTRYSPSFQGQVTISADKSITTAYLKWSSLKASDTATYYCVKGSETWGQGVLVTVSS
VL: QPVLTQPASLSASPGASASLTCTFNGGITVPGYDILWYQQKSGSPPRYLLRYKSDSTKDQGSGVPSRFSGSKDASTNTGILRISGLQSEDEADYYCAIGHSSGWIFGGGTRLTVL
With B12, the EC50 with EBOV VLP came to 0.66 nM; with SUDV VLP it was 0.187 nM.
